The record followed here is article PMC6232179.

In this assay the target is His-tagged ER luminal domain of IRE1α (IRE1-NLD-His6-KDEL). Nature of the assay: SPR; IRE1-NLD amine-coupled on a CM5 chip (~1500 RU); COX-2 flowed at 0 to 10000 nM in 10 mM Hepes pH 7.4, 150 mM NaCl, 0.005% P20, 30 µl/min; BIACore T200; triplicate. For orientation: Surface plasmon resonance follows binding to a sensor surface in real time, without labels.

B1: COX-2 (prostaglandin endoperoxide synthase 2, PTGS2), purified His-tagged protein (enzyme)
chain: ANPCCSHPCQNRGVCMSVGFDQYKCDCTRTGFYGENCSTPEFLTRIKLFLKPTPNTVHYILTHFKGFWNVVNNIPFLRNAIMSYVLTSRSHLIDSPPTYNADYGYKSWEAFSNLSYYTRALPPVPDDCPTPLGVKGKKQLPDSNEIVEKLLLRRKFIPDPQGSNMMFAFFAQHFTHQFFKTDHKRGPAFTNGLGHGVDLNHIYGETLARQRKLRLFKDGKMKYQIIDGEMYPPTVKDTQAEMIYPPQVPEHLRFAVGQEVFGLVPGLMMYATIWLREHNRVCDVLKQEHPEWGDEQLFQTSRLILIGETIKIVIEDYVQHLSGYHFKLKFDPELLFNKQFQYQNRIAAEFNTLYHWHPLLPDTFQIHDQKYNYQQFIYNNSILLEHGITQFVESFTRQIAGRVAGGRNVPPAVQKVSQASIDQSRQMKYQSFNEYRKRFMLKPYESFEELTGEKEMSAELEALYGDIDAVELYPALLVEKPRPDAIFGETMVEVGAPFSLKGLMGNVICSPAYWKPSTFGGEVGFQIINTASIQSLICNNVKGCPFTSFSVPDPELIKTVTINASSSRSGLDDINPTVLLKERSTEL
modifications: red fluorescent tag, covalently labelled (only in the MST of Figure 4B)
In turn, B1 gave a Kd of 880 nM.

The Kd is a measure of binding affinity in units of concentration. Low values mean higher affinity, high ones lower affinity.
